Test results published in patent US20170082633A1 (WHITEHEAD INSTITUTE FOR BIOMEDICAL RESEARCH, published 2017).

What was measured:
[1] = target: T1, endogenous RagC (UniProt Q9HB90 2-399); experiment: FLAG IP from transfected HEK-293T cells, immunoblot
T1 construct: Detected by immunoblot in anti-FLAG immunoprecipitates; also called RagC GTPase
Procedure: (§1) HEK-293T cells were cultured in DMEM supplemented with 10% inactivated fetal bovine serum, penicillin (100 IU/mL), and streptomycin (100 μg/mL) and maintained at 37° C. and 5% CO₂. Two million HEK-293T cells were plated in 10 cm culture dishes.
(§2) Transfection mixes were taken up to a total of 5 μg of DNA using empty pRK5. HEK-293T cells stably expressing FLAG-tagged proteins were rinsed once with ice-cold PBS and lysed in ice-cold lysis buffer (40 mM HEPES pH 7.4, 1% Triton X-100, 10 mM β-glycerol phosphate, 10 mM pyrophosphate, 2.5 mM MgC12 and 1 tablet of EDTA-free protease inhibitor (Roche) per 25 ml buffer). The soluble fractions from cell lysates were isolated by centrifugation at 13,000 rpm for 10 min in a microcentrifuge. […] Immunoprecipitates were washed three times with lysis buffer containing 500 mM NaCl. Immunoprecipitated proteins were denatured by the addition of 50 μL of sample buffer and incubation at RT for 30 min. It is critical that the samples containing SLC38A9 are neither boiled nor frozen prior to resolution by SDS-PAGE and analysis by immunoblotting. A similar protocol was employed when preparing samples for mass spectrometry.

[2] = target: T2, endogenous p18 (UniProt Q6IAA8 2-161); experiment: as above
T2 construct: Detected by immunoblot in anti-FLAG immunoprecipitates; also called LAMTOR1
Procedure: as §1, §2

[3] = target: T3, endogenous p14 (UniProt Q9Y2Q5 1-125); experiment: as above
T3 construct: Detected by immunoblot in anti-FLAG immunoprecipitates; also called LAMTOR2
Procedure: as §1, §2

[4] = target: T4, endogenous RagA (UniProt Q7L523 1-313); experiment: as above
T4 construct: Detected by immunoblot in anti-FLAG immunoprecipitates; also called RagA GTPase
T4 sequence (Q7L523 whole entry): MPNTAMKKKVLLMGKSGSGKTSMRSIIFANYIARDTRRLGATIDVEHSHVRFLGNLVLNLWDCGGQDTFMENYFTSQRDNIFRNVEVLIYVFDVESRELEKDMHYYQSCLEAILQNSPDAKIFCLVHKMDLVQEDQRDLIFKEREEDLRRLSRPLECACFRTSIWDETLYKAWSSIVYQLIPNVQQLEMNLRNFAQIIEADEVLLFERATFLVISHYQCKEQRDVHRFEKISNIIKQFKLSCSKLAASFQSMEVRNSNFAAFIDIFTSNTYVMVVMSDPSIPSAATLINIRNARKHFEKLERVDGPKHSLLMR
Procedure: as §1, §2

[5] = target: co-expressed epitope tagged Ragulator proteins (UniProt Q6IAA8 2-161; Q9Y2Q5 1-125; Q9UHA4 1-124; Q0VGL1 1-99; O43504 1-91); experiment: co-immunoprecipitation from HEK-293T cells, immunoblot
Procedure: as §2

[6] = target: endogenous Ragulator (UniProt Q6IAA8 2-161; Q9Y2Q5 1-125; Q9UHA4 1-124; Q0VGL1 1-99; O43504 1-91); experiment: as above
Procedure: as §2

T1 sequence (Q9HB90 2-399 limits assumed): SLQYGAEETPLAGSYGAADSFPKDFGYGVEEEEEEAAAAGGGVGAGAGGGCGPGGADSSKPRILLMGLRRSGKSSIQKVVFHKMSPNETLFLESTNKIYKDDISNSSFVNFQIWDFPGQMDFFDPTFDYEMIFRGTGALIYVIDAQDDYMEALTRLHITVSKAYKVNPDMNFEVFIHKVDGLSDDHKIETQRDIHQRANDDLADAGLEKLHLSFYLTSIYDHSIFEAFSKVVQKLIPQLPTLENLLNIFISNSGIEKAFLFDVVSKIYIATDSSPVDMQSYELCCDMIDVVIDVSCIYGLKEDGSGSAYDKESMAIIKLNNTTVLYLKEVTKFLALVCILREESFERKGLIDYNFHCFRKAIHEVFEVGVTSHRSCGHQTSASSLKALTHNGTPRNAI

Row | binding result [1] | binding result [2] | binding result [3] | binding result [4] | binding result [5] | binding result [6] | Binder
1 | no binding | no binding | no binding | no binding |  |  | FLAG-SLC38A9.1 L74A (other) single chain: MANMNSDSRHLGTSEVDHERDPGPMNIQFEPSDLRSKRPFCIEPTNIVNVNHVIQRVSDHASAMNKRIHYYSRATTPADKALIAPDHVVPAPEECYVYSPLGSAYKLQSYTEGYGKNTSLVTIFMIWNTMMGTSILSIPWGIKQAGFTTGMCVIILMGLLTLYCCYRVVKSRTMMFSLDTTSWEYPDVCRHYFGSFGQWSSLLFSLVSLIGAMIVYWVLMSNFLFNTGKFIFNFIHHINDTDTILSTNNSNPVICPSAGSGGHPDNSSMIFYANDTGAQQFEKWWDKSRTVPFYLVGLLLPLLNFKSPSFFSKFNILGTVSVLYLIFLVTFKAVRLGFHLEFHWFIPTEFFVPEIRFQFPQLTGVLTLAFFIHNCIITLLKNNKKQENNVRDLCIAYMLVTLTYLYIGVLVFASFPSPPLSKDCIEQNFLDNFPSSDTLSFIARIFLLFQMMTVYPLLGYLARVQLLGHIFGDIYPSIFHVLILNLIIVGAGVIMACFYPNIGGIIRYSGAACGLAFVFIYPSLIYIISLHQEERLTWPKLIFHVFIIILGVANLIVQFFM
2 | no binding | no binding | no binding | no binding |  |  | FLAG-SLC38A9.1 P85A (other, Full-length mutant) single chain: MANMNSDSRHLGTSEVDHERDPGPMNIQFEPSDLRSKRPFCIEPTNIVNVNHVIQRVSDHASAMNKRIHYYSRLTTPADKALIAADHVVPAPEECYVYSPLGSAYKLQSYTEGYGKNTSLVTIFMIWNTMMGTSILSIPWGIKQAGFTTGMCVIILMGLLTLYCCYRVVKSRTMMFSLDTTSWEYPDVCRHYFGSFGQWSSLLFSLVSLIGAMIVYWVLMSNFLFNTGKFIFNFIHHINDTDTILSTNNSNPVICPSAGSGGHPDNSSMIFYANDTGAQQFEKWWDKSRTVPFYLVGLLLPLLNFKSPSFFSKFNILGTVSVLYLIFLVTFKAVRLGFHLEFHWFIPTEFFVPEIRFQFPQLTGVLTLAFFIHNCIITLLKNNKKQENNVRDLCIAYMLVTLTYLYIGVLVFASFPSPPLSKDCIEQNFLDNFPSSDTLSFIARIFLLFQMMTVYPLLGYLARVQLLGHIFGDIYPSIFHVLILNLIIVGAGVIMACFYPNIGGIIRYSGAACGLAFVFIYPSLIYIISLHQEERLTWPKLIFHVFIIILGVANLIVQFFM
3 | no binding | no binding | no binding | no binding |  |  | FLAG-SLC38A9.1 P90A (other, Full-length mutant) single chain: MANMNSDSRHLGTSEVDHERDPGPMNIQFEPSDLRSKRPFCIEPTNIVNVNHVIQRVSDHASAMNKRIHYYSRLTTPADKALIAPDHVVAAPEECYVYSPLGSAYKLQSYTEGYGKNTSLVTIFMIWNTMMGTSILSIPWGIKQAGFTTGMCVIILMGLLTLYCCYRVVKSRTMMFSLDTTSWEYPDVCRHYFGSFGQWSSLLFSLVSLIGAMIVYWVLMSNFLFNTGKFIFNFIHHINDTDTILSTNNSNPVICPSAGSGGHPDNSSMIFYANDTGAQQFEKWWDKSRTVPFYLVGLLLPLLNFKSPSFFSKFNILGTVSVLYLIFLVTFKAVRLGFHLEFHWFIPTEFFVPEIRFQFPQLTGVLTLAFFIHNCIITLLKNNKKQENNVRDLCIAYMLVTLTYLYIGVLVFASFPSPPLSKDCIEQNFLDNFPSSDTLSFIARIFLLFQMMTVYPLLGYLARVQLLGHIFGDIYPSIFHVLILNLIIVGAGVIMACFYPNIGGIIRYSGAACGLAFVFIYPSLIYIISLHQEERLTWPKLIFHVFIIILGVANLIVQFFM
4 | no binding | no binding | no binding | no binding |  |  | FLAG-SLC38A9.1 Y71A (other, Full-length mutant) single chain: MANMNSDSRHLGTSEVDHERDPGPMNIQFEPSDLRSKRPFCIEPTNIVNVNHVIQRVSDHASAMNKRIHYASRLTTPADKALIAPDHVVPAPEECYVYSPLGSAYKLQSYTEGYGKNTSLVTIFMIWNTMMGTSILSIPWGIKQAGFTTGMCVIILMGLLTLYCCYRVVKSRTMMFSLDTTSWEYPDVCRHYFGSFGQWSSLLFSLVSLIGAMIVYWVLMSNFLFNTGKFIFNFIHHINDTDTILSTNNSNPVICPSAGSGGHPDNSSMIFYANDTGAQQFEKWWDKSRTVPFYLVGLLLPLLNFKSPSFFSKFNILGTVSVLYLIFLVTFKAVRLGFHLEFHWFIPTEFFVPEIRFQFPQLTGVLTLAFFIHNCIITLLKNNKKQENNVRDLCIAYMLVTLTYLYIGVLVFASFPSPPLSKDCIEQNFLDNFPSSDTLSFIARIFLLFQMMTVYPLLGYLARVQLLGHIFGDIYPSIFHVLILNLIIVGAGVIMACFYPNIGGIIRYSGAACGLAFVFIYPSLIYIISLHQEERLTWPKLIFHVFIIILGVANLIVQFFM
5 |  |  |  |  | no binding | no binding | FLAG-SLC38A9.4 (other, also called SLC38A9 isoform 4; isoform 4) DYKDDDDKLVTIFMIWNTMMGTSILSIPWGIKQAGFTTGMCVIILMGLLTLYCCYRVVKSRTMMFSLDTTSWEYPDVCRHYFGSFGQWSSLLFSLVSLIGAMIVYWVLMSNFLFNTGKFIFNFIHHINDTDTILSTNNSNPVICPSAGSGGHPDNSSMIFYANDTGAQQFEKWWDKSRTVPFYLVGLLLPLLNFKSPSFFSKFNILGTVSVLYLIFLVTFKAVRLGFHLEFHWFIPTEFFVPEIRFQFPQLTGVLTLAFFIHNCIITLLKNNKKQENNVRDLCIAYMLVTLTYLYIGVLVFASFPSPPLSKDCIEQNFLDNFPSSDTLSFIARIFLLFQMMTVYPLLGYLARVQLLGHIFGDIYPSIFHVLILNLIIVGAGVIMACFYPNIGGIIRYSGAACGLAFVFIYPSLIYIISLHQEERLTWPKLIFHVFIIILGVANLIVQFFM
6 |  |  |  |  | no binding | no binding | FLAG-SLC38A9.1 Δ110 (other, also called SLC38A9 Δ110) DYKDDDDKTEGYGKNTSLVTIFMIWNTMMGTSILSIPWGIKQAGFTTGMCVIILMGLLTLYCCYRVVKSRTMMFSLDTTSWEYPDVCRHYFGSFGQWSSLLFSLVSLIGAMIVYWVLMSNFLFNTGKFIFNFIHHINDTDTILSTNNSNPVICPSAGSGGHPDNSSMIFYANDTGAQQFEKWWDKSRTVPFYLVGLLLPLLNFKSPSFFSKFNILGTVSVLYLIFLVTFKAVRLGFHLEFHWFIPTEFFVPEIRFQFPQLTGVLTLAFFIHNCIITLLKNNKKQENNVRDLCIAYMLVTLTYLYIGVLVFASFPSPPLSKDCIEQNFLDNFPSSDTLSFIARIFLLFQMMTVYPLLGYLARVQLLGHIFGDIYPSIFHVLILNLIIVGAGVIMACFYPNIGGIIRYSGAACGLAFVFIYPSLIYIISLHQEERLTWPKLIFHVFIIILGVANLIVQFFM
7 | no binding |  |  |  |  |  | FLAG-LAMP1 (other, Control lysosomal membrane protein) DYKDDDDKAMFMVKNGNGTACIMANFSAAFSVNYDTKSGPKNMTFDLPSDATVVLNRSSCGKENTSDPSLVIAFGRGHTLTLNFTRNATRYSVQLMSFVYNLSDTHLFPNASSKEIKTVESITDIRADIDKKYRCVSGTQVHMNNVTVTLHDATIQAYLSNSSFSRGETRCEQDRPSPTTAPPAPPSPSPSPVPKSPSVDKYNVSGTNGTCLLASMGLQLNLTYERKDNTTVTRLLNINPNKTSASGSCGAHLVTLELHSEGTTVLLFQFGMNASSSRFFLQGIQLNTILPDARDPAFKAANGSLRALQATVGNSYKCNAEEHVRVTKAFSVNIFKVWVQAFKVEGGQFGSVEECLLDENSMLIPIAVGGALAGLVLIVLIAYLVGRKRSHAGYQTI
8 |  |  |  |  | no binding | no binding | FLAG-SLC38A9.2 (other, also called SLC38A9 isoform 2; isoform 2) DYKDDDDKMNKRIHYYSRLTTPADKALIAPDHVVPAPEECYVYSPLGSAYKLQSYTEGYGKNTSLVTIFMIWNTMMGTSILSIPWGIKQAGFTTGMCVIILMGLLTLYCCYRVVKSRTMMFSLDTTSWEYPDVCRHYFGSFGQWSSLLFSLVSLIGAMIVYWVLMSNFLFNTGKFIFNFIHHINDTDTILSTNNSNPVICPSAGSGGHPDNSSMIFYANDTGAQQFEKWWDKSRTVPFYLVGLLLPLLNFKSPSFFSKFNILGTVSVLYLIFLVTFKAVRLGFHLEFHWFIPTEFFVPEIRFQFPQLTGVLTLAFFIHNCIITLLKNNKKQENNVRDLCIAYMLVTLTYLYIGVLVFASFPSPPLSKDCIEQNFLDNFPSSDTLSFIARIFLLFQMMTVYPLLGYLARVQLLGHIFGDIYPSIFHVLILNLIIVGAGVIMACFYPNIGGIIRYSGAACGLAFVFIYPSLIYIISLHQEERLTWPKLIFHVFIIILGVANLIVQFFM
